Laboratory results as given in US20060115428A1 (MorphoSys, published 2006).

Experiments:
[1] = target: T1, recombinant fibronectin domain 7-8-9 (without ED-B) (UniProt P02751-1 1173-1446, limits assumed); experiment: specificity ELISA on immobilised recombinant domain 7-8-9
T1 construct: domain: fibronectin domains 7-8-9 (without ED-B)

[2] = target: T2, recombinant fibronectin domain 6 (UniProt P02751 1086-1172, limits assumed); experiment: specificity ELISA on immobilised recombinant fibronectin domain 6
T2 construct: domain: fibronectin domain 6; also called 6FN; 6-FN

[3] = target: T3, recombinant fibronectin domain ED-B (His)6 (human, UniProt P02751 1266-1356); experiment: SPR (BIAcore), ED-B immobilised on chip, Fab in flow
T3 construct: domain: ED-B; Produced by standard procedures; immobilised on ELISA plates or on the BIAcore chip; also called recombinant ED-B; human ED-B
Description: (§1) F1-Chips (Biacore, Sweden) were coated with about 200 RU of ED-B (30 μg/ml, 10 mmol of acetate buffer, pH 4.0) and reference flow cells with a corresponding amount of human serum albumin (20 μg/ml, 10 mmol of acetate buffer, pH 4.5) with use of standard EDC-NHS-amine-coupling chemistry. The antigen density was reduced to about 100 RU for the Fab characterization of the second maturation. The regeneration was carried out with 10 mmol of HCl. All kinetic measurements were carried out in PBS buffer (136 mmol of NaCl, 2.7 mmol of KCl, 10 mmol of Na₂HPO₄, 1.76 mmol of KH₂PO₄, pH 7.4) with a flow rate of 20 μl/minute with use of a Fab concentration range of 1.5-500 nmol. The injection period was 1 minute in each case. All sensograms were evaluated with use of BIA evaluation software 3.1.
The properties of twelve selected binding molecules was determined by BIAcore analysis (see Table 1). […] At least two independent measurements with Fab molecules from different batches were performed for protein expression and protein purification. The binding rate (Kₒₙ) and the dissociating-off rate (Koff) of the Fab molecule are indicated in separate columns.

[4] = target: T3, recombinant fibronectin domain ED-B …; experiment: SPR (BIAcore), ED-B immobilised on chip (about 100 RU), Fab in flow
Description: as §1

[5] = target: T3, recombinant fibronectin domain ED-B …; experiment: SPR (BIAcore); ratio to parent clone MOR02619
Description: as §1

[6] = target: T3, recombinant fibronectin domain ED-B …; experiment: SPR (BIAcore), ED-B immobilised on chip, Fab in flow; remark: listed apart in the source
Description: as §1

Binder | binding result [1] | binding result [2] | Kd [3] [nM] | koff [3] [s⁻¹] | kon [3] [M⁻¹ s⁻¹] | x-Fold Improvement Relative to the Parent Clone, KD [5] [fold] | x-Fold Improvement Relative to the Parent Clone, Koff [5] [fold] | x-Fold Improvement Relative to the Parent Clone, Kon [5] [fold] | Kd [6] [nM] | koff [6] [s⁻¹] | kon [6] [M⁻¹ s⁻¹] | further results
MOR03243 (Fab, V domains shown, Fab, H-CDR2 derivative of MOR03055) VH: QVQLQESGPGLVKPGETLSLTCTVSGGSISSYYWSWIRQAPGKGLEWIGEIHRGGYTQYNPSLKSRVTISVDTSKNQFSLKLSSVTAADTAVYYCARFFDVWGQGTLVTVSS VL: DIVLTQPPSVSGAPGQRVTISCSGSSSNIGSNTVRWYQQLPGTAPKLLIYSNNKRPSGVPDRFSGSKSGTSASLAITGLQSEDEADYYCQAWTRAHRYPVFGGGTKLTVLG |  |  |  |  |  |  |  |  |  |  |  | Kd [4]: 0.7 nM; koff [4]: 0.0018 s⁻¹; kon [4]: 2.9e+06 M⁻¹ s⁻¹
MOR03066 (Fab, V domains shown, Fab, L-CDR3 derivative of MOR02619) VH: QVQLQESGPGLVKPGETLSLTCTVSGGSISSYYWSWIRQAPGKGLEWIGIGHWGSTQYNPSLKGRVTISVDTSKNQFSLKLSSVTAEDTAVYYCARFFDVWGQGTLVTVSS VL: DIVLTQPPSVSGAPGQRVTISCSGSSSNIGSNTVRWYQQLPGTAPKLLIYSNNKRPSGVPDRFSGSKSGTSASLAITGLQSEDEADYYCSSYDTQVTRVFGGGTKLTVLG |  |  |  |  |  | 3.8 | 2.8 | 1.4 | 4.2 | 0.0047 | 1.1e+06 | 
MOR03075 (Fab, V domains shown, Fab, L-CDR3 derivative of MOR02619) VH: QVQLQESGPGLVKPGETLSLTCTVSGGSISSYYWSWIRQAPGKGLEWIGIGHWGSTQYNPSLKGRVTISVDTSKNQFSLKLSSVTAEDTAVYYCARFFDVWGQGTLVTVSS VL: DIVLTQPPSVSGAPGQRVTISCSGSSSNIGSNTVRWYQQLPGTAPKLLIYSNNKRPSGVPDRFSGSKSGTSASLAITGLQSEDEADYYCQSWDPRSFTVFGGGTKLTVLG |  |  |  |  |  | 6.8 | 5 | 1.4 | 2.4 | 0.0026 | 1.1e+06 | 
MOR02618 (Fab, V domains shown, HuCAL GOLD Fab, VH3/L3) VH: QVQLVESGGGLVQPGGSLRLSCAASGFTFNNYGMTWVRQAPGKGLEWVSSIYGYGSNTYYADSVKGRFTISRDNSKNTLYLQMNSLRAEDTAVYYCARNYWVFAYWGQGTLVTVSS VL: DIELTQPPSVSVAPGQTARISCSGDNIPGKSVHWYQQKPGQAPVLVIYGKMNRPSGIPERFSGSNSGNTATLTISGTQAEDEADYYCQSYDNFNDSVVFGGGTKLTVLG | no binding | no binding | 477 | 0.2 | 430000 |  |  |  |  |  |  | 
MOR02613 (Fab, V domains shown, HuCAL GOLD Fab, VH3/L2) VH: QVQLVESGGGLVQPGGSLRLSCAASGFTFSNYTMTWVRQAPGKGLEWVSFIIGSGSNTSYADSVKGRFTISRDNSKNTLYLQMNSLRAEDTAVYYCARYVNGFDIWGQGTLVTVSS VL: DIALTQPASVSGSPGQSITISCTGTSSDVGVYYYVSWYQQHPGKAPKLMIYYDSKRPSGVSNRFSGSKSGNTASLTISGLQAEDEADYYCQTYAKKDYSLVFGGGTKLTVLG |  |  | 164 | 0.13 | 780000 |  |  |  |  |  |  | 
MOR02722 (Fab, V domains shown, HuCAL GOLD Fab, VH3/K2) VH: QVQLVESGGGLVQPGGSLRLSCAASGFTFSSNAIHWVRQAPGKGLEWVSSISGSGSNTYYADSVKGRFTISRDNSKNTLYLQMNSLRAEDTAVYYCARFIASWGQGTLVTVSS VL: DIVMTQSPLSLPVTPGEPASISCRSSQSLVHSNGYTDLNWYLQKPGQSPQLLIYLGSYRASGVPDRFSGSGSGTDFTLKISRVEAEDVGVYYCQQYSNFPFTFGQGTKVEIKR | no binding | no binding | 94 | 0.014 | 150000 |  |  |  |  |  |  | 
MOR02611 (Fab, V domains shown, HuCAL GOLD Fab, VH1B/L2) VH: QVQLVQSGAEVKKPGASVKVSCKASGYTFSGSYMHWVRQAPGQGLEWMGIINPASGKTLYAQKFQGRVTMTRDTSISTAYMELSSLRSEDTAVYYCARGLYYRFASWGQGTLVTVSS VL: DIALTQPASVSGSPGQSITISCTGTSSDIGGYHSVSWYQQHPGKAPKLMIYRSNRPSGVSNRFSGSKSGNTASLTISGLQAEDEADYYCAAATGGWVFGGGTNLTVLG |  |  | 332 | 0.051 | 150000 |  |  |  |  |  |  | 

The next lines start with results.

binding result [1] | binding result [2] | Kd [3] [nM] | koff [3] [s⁻¹] | kon [3] [M⁻¹ s⁻¹] | x-Fold Improvement Relative to the Parent Clone, KD [5] [fold] | x-Fold Improvement Relative to the Parent Clone, Koff [5] [fold] | x-Fold Improvement Relative to the Parent Clone, Kon [5] [fold] | Kd [6] [nM] | koff [6] [s⁻¹] | kon [6] [M⁻¹ s⁻¹] | Binder | further results
no binding | no binding | 21.3 | 0.0051 | 240000 |  |  |  |  |  |  | MOR02622 (Fab, V domains shown, HuCAL GOLD Fab, VH3/L2) VH: QVQLVESGGGLVQPGGSLRLSCAASGFTFSNYAMTWVRQAPGKGLEWVSGISYKSSSTYYADSVKGRFTISRDNSKNTLYLQMNSLRAEDTAVYYCARGLVTFDNWGQGTLVTVSS VL: DIALTQPASVSGSPGQSITISCTGTSSDGGTYNFVSWYQQHPGKAPKLMIYRVSNRPSGVSNRFSGSKSGNTASLTISGLQAEDEADYYCSSWTHSFTDYVFGGGTKLTVLG | 
 |  | 59 | 0.028 | 540000 |  |  |  |  |  |  | MOR02616 (Fab, V domains shown, HuCAL GOLD Fab, VH3/K3) VH: QVQLVESGGGLVQPGGSLRLSCAASGFTFRNNAMHWVRQAPGKGLEWVSAISSSGSGTYYADSVKGRFTISRDNSKNTLYLQMNSLRAEDTAVYYCARVIVLFDYWGQGTLVTVSS VL: DIVLTQSPATLSLSPGERATLSCRASQNVRSNLAWYQQKPGQAPRLLIYGASNRATGVPARFSGSGSGTDFTLTISSLEPEDFAVYYCLQKYSIPFTFGQGTKVEIKR | 
 |  |  |  |  | 5.4 | 2.6 | 2.2 | 3 | 0.0051 | 1.8e+06 | MOR03055 (Fab, V domains shown, Fab, L-CDR3 derivative of MOR02619) VH: QVQLQESGPGLVKPGETLSLTCTVSGGSISSYYWSWIRQAPGKGLEWIGIGHWGSTQYNPSLKGRVTISVDTSKNQFSLKLSSVTAEDTAVYYCARFFDVWGQGTLVTVSS VL: DIVLTQPPSVSGAPGQRVTISCSGSSSNIGSNTVRWYQQLPGTAPKLLIYSNNKRPSGVPDRFSGSKSGTSASLAITGLQSEDEADYYCQAWTRAHRYPVFGGGTKLTVLG | 
 |  |  |  |  | 4.8 | 3.2 | 1.5 | 3.3 | 0.0041 | 1.2e+06 | MOR03069 (Fab, V domains shown, Fab, L-CDR3 derivative of MOR02619) VH: QVQLQESGPGLVKPGETLSLTCTVSGGSISSYYWSWIRQAPGKGLEWIGIGHWGSTQYNPSLKGRVTISVDTSKNQFSLKLSSVTAEDTAVYYCARFFDVWGQGTLVTVSS VL: DIVLTQPPSVSGAPGQRVTISCSGSSSNIGSNTVRWYQQLPGTAPKLLIYSNNKRPSGVPDRFSGSKSGTSASLAITGLQSEDEADYYCWTGMSYHFVFGGGTKLTVLG | 
 |  |  |  |  | 5.1 | 2.3 | 2.3 | 3.1 | 0.0057 | 1.9e+06 | MOR03071 (Fab, V domains shown, Fab, L-CDR3 derivative of MOR02619) VH: QVQLQESGPGLVKPGETLSLTCTVSGGSISSYYWSWIRQAPGKGLEWIGIGHWGSTQYNPSLKGRVTISVDTSKNQFSLKLSSVTAEDTAVYYCARFFDVWGQGTLVTVSS VL: DIVLTQPPSVSGAPGQRVTISCSGSSSNIGSNTVRWYQQLPGTAPKLLIYSNNKRPSGVPDRFSGSKSGTSASLAITGLQSEDEADYYCLAYIQSKGHVFGGGTKLTVLG | 
no binding | no binding | 75 | 0.091 | 1.3e+06 |  |  |  |  |  |  | MOR02610 (Fab, V domains shown, HuCAL GOLD Fab, VH1B/L1) VH: QVQLVQSGAEVKKPGASVKVSCKASGYTFTGFYINWVRQAPGQGLEWMGWINPYSGNTRYAQKFQGRVTMTRDTSISTAYMELSSLRSEDTAVYYCARSPVYYKYDYWGQGTLVTVSS VL: DIVLTQPPSVSGAPGQRVTISCSGSSGNIGINFVNWYQQLPGTAPKLLIYKNNKRPSGVPDRFSGSKSGTSASLAITGLQSEDEADYYCQSYDKTSSTYVFGGGTKLTVLG | 
no binding | no binding | 160 | 0.042 | 280000 |  |  |  |  |  |  | MOR02614 (Fab, V domains shown, HuCAL GOLD Fab, VH3/L1) VH: QVQLVESGGGLVQPGGSLRLSCAASGFTFNNNWMHWVRQAPGKGLEWVSFISGSGSHTYYADSVKGRFTISRDNSKNTLYLQMNSLRAEDTAVYYCARAYDVWGQGTLVTVSS VL: DIVLTQPPSVSGAPGQRVTISCSGSSSNIGFNYVNWYQQLPGTAPKLLIYGNSKRPSGVPDRFSGSKSGTSASLAITGLQSEDEADYYCAMFSPEGVFGGGTKLTVLG | 
